Test results taken from patent US20170320967A1 (published 2017).

Biological target: T1, recombinant human IL4 (human, UniProt P05112 25-153)
T1 construct: Bought protein; also called human IL4 (Millipore catalog # IL004)
T1 sequence (looked up): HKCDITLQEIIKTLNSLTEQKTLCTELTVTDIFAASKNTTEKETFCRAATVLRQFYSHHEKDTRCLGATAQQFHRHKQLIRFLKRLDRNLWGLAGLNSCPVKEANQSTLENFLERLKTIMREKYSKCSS
Assay: SPR (Biacore), captured antibody, IL4 as analyte

- Kd: 1.02 pM
B1: Binding Protein 18, (anti-IL4 × anti-IL13) × anti-IL13 (bispecific antibody, human IgG1, kappa, lambda)
heavy 1: not shown
light 1: DIVLTQSPASLAVSLGQRATISCRASESVDSYGQSYMHWYQQKAGQPPKLLIYLASNLESGVPARFSGSGSRTDFTLTIDPVQAEDAATYYCQQNAEDSRTFGGGTKLEIKGQPKAAPSVTLFPPSSEELQANKATLVCLISDFYPGAVTVAWKADSSPVKAGVETTTPSKQSNNKYAASSYLSLTPEQWKSHRSYSCQVTHEGSTVEKTVAPTECS
heavy 2: not shown
light 2: not shown
notes: Bispecific trivalent (CODV-Fab) × Fab-IgG1 Fc; kappa on CODV-LC, lambda on Fab-arm-LC; CODV-HC knob-RF, Fab-arm-HC hole; also called IL13 × (IL4 × IL13)
